Where “and” joins values, the source holds several entries; their conditions need not be identical. Equal entries are not always repeated.

The results in this text go back to publication PMC7744274.

The assay concerns the target SARS-CoV-2 S glycoprotein, prefusion S ectodomain (trimeric SARS-CoV-2 spike) (SARS-CoV-2 | bacteriophage T4) (UniProt P0DTC2). Kind of assay: SPR; Biacore T200; SARS-CoV-2 S (50 ug/ml) captured on Ni2+-loaded NTA chip; ACE2 (His-Tag removed) as analyte, 200 nM to 3.125 nM in triplicate, 50 uL/min, HBS P+ buffer; association 300 s, dissociation 600 s; 1:1 binding model.

“WT soluble ACE2 treated with alpha2-3,6,8 sialidase (from UniProt Q9BYF1 18-626) (domain or fragment)” returned a decrease of KD against WT ACE2 of 30 % lower.

As to “soluble ACE2 expressed in the presence of 20 uM kifunensine (Kif ACE2) (from UniProt Q9BYF1 18-626) (domain or fragment)”, the increase of KD against WT ACE2 came to 50%. With “soluble recombinant ACE2 ectodomain, un-engineered (wild-type form, WT) (from UniProt Q9BYF1 18-626) (domain or fragment)”, the Kd was 50 to 100 nM and 76 nM.

What is called Kd is a measure of binding affinity in units of concentration.
